Test results reported in US20050064556A1.

Molecular target: factor Xa
Experiment: cell-based or functional assay

factor Xa amidolytic assay, 50% inhibitory concentration: 20 ng/mL
Substance: Tissue Factor Pathway Inhibitor (TFPI), yeast-produced, authentic mature 276 amino acid polypeptide (from UniProt P10646 29-304)
